For the assay, the target named is complement receptor type 3 (CR3), heterodimer of CD11b and CD18 (human) (UniProt P11215). Briefly: cell-based or functional assay.

Bounds are passed on as bounds.

Take Bear1 anti-CD11b antibody (Immunotech): the invasion inhibition of endo- and ectocervical cells (gentamicin-resistance assay) is greater than 93%. Consider “H5A4 anti-CD11b monoclonal antibody (Developmental Studies Hybridoma Bank)”, for which the invasion inhibition of endo- and ectocervical cells (gentamicin-resistance assay) is greater than 93%; the invasion inhibition, ectocervical cells (gentamicin-resistance assay) turned out to be 100%; the invasion inhibition, endocervical cells (gentamicin-resistance assay) was 99.9%. IB4 anti-CD18 antibody displayed an invasion inhibition of endo- and ectocervical cells (gentamicin-resistance assay) greater than 93%.

The values are drawn from US20040253222A1.
